{"source": "patent US9587002B2", "about": "“Sequence of nucleotides and peptides GSE 24.2 of dyskerin, which can induce telomerase activity, method for obtaining same, therapeutic compositions and applications thereof” (CONSEJO SUPERIOR DE INVESTIGACIONES CIENTIFICAS, priority 2005, dated 2017)", "molecules": {"B1": {"name": "GSE 24.2: 165-pb cDNA fragment (nucleotides 268 to 433) of human dyskerin, SEQ ID NO1, encoding peptide SEQ ID NO2, expressed from pLNCX plasmid (nucleic acid, listed as Homo sapiens)", "DNA": "GGTTTCATTAATCTTGACAAGCCCTCTAACCCCTCTTCCCATGAGGTGGTAGCCTGGATTCGACGGATACTTCGGGTGGAGAAGACAGGGCACAGTGGTACTCTGGATCCCAAGGTGACTGGTTGTTTAATCGTGTGCATAGAACGAGCCACTCGCTTGGTGAAG", "modifications": "expressed from pLNCX plasmid; CDS (1)..(165) Sequence GSE 24.2"}}, "key": {"[1]": {"system": "hTR", "assay": "RT-PCR of hTR in cells of patients with dyskeratosis congenita", "format": "cell-based, human", "conditions": "RT-PCR 24 hours after transfection", "procedure": "(§1) FIG. 10.—Telomerase activity and expression levels of hTERT and hTR in the cells of patients with dyskeratosis congenita and in VA13 cells transiently transfected with the 24.2 plasmid or the pLNCX empty vector. A) Telomerase activity measured by means of the TRAP assay in the cells of patients with dyskeratosis congenita (DC-1, DC-2 and DC-3) and in the carrier parent (DC-C) following electroporation of 45 μg of the pLNCX empty plasmid (−) or the pLNCX 24.2 vector (+) by 15 million cells. B) RT-PCR of the RNA from cells of one of the patients with dyskeratosis congenita, DC3 transfected with the empty vector and DC3 transfected with the 24.2 plasmid, using oligos specific for hTERT and hTR. As a starting RNA control, oligos for the amplification of GAPDH were used. C) Telomerase activity in VA13 cells. The cells were transiently transfected with 16 μg of the control pLNCX empty vector, expressing DKC or the GSE 24.2 peptide per million cells. 24 hours later, the telomerase activity was analysed as described above, using dilutions of the protein extracts from each transfection. D) The expression levels of hTERT and hTR in VA13 cells transfected with 16 μg of the different construct per million cells. RNA levels were detected as described above. GAPDH was used as a control. […] After 24 h of transfection, the luciferase activity was analyzed as described above. […]"}, "[2]": {"system": "hTERT", "assay": "RT-PCR of hTERT in VA13 cells", "format": "cell-based", "conditions": "transient transfection", "procedure": "as §1"}, "[3]": {"system": "telomerase", "assay": "Telomerase activity (TRAP) in cells of patients with dyskeratosis congenita", "format": "cell-based, human", "conditions": "DC-1, DC-2, DC-3 and carrier parent (DC-C) cells; 24 hours after transfection vs empty vector", "procedure": "as §1, with “The cells were transiently transfected with 16 μg of the control pLNCX empty vector, expressing DKC or the GSE 24.2 peptide per million cells.” left out, “D) The expression levels of hTERT and hTR in VA13 cells transfected with 16 μg of the different construct per million cells.” left out, “above.” for “above. GAPDH was used as a control.”\nTelomerase activity assay based on the TRAP method Wright et al., 1995). The telomerase activity was measured using the TRAPeze telomerase detection kit (Intergen) in accordance with the instruction manual. […]"}, "[4]": {"system": "JNK", "assay": "Activation of JNK by cisplatin in 293T cell lines (Western blot)", "format": "cell-based, human", "conditions": "293T cells stably expressing GSE 24.2 vs pLNCX; cisplatin 6 hours", "procedure": "FIG. 2.—Cell viability and activation of the JNK and p38 death pathways in 293T cell lines: pLNCX and 24.2, treated with cisplatin. A) Cell viability. After seeding the 293T cells: expressing the empty vector (pLNCX) and GSE 24.2 (24.2) in 24-well plates, they were incubated with concentrations between 0-100 μg/ml of cisplatin. The cell viability was measured by means of the crystal violet technique after 72 hours of exposure to the drug. The data represent the mean of two experiments performed in quadruplicate. B) Activation kinetics. Subsequently, the activation of JNK and p38 was studied using antibodies that specifically recognise the active forms. As a load control, the levels of JNK-1 were detected.\nThe pLNCX24-2 plasmid containing GSE of the same name was transfected in a stable manner in the 293T cells and, as a control, the pLNCX empty vector was transfected. After verifying, by means of PCR, that the 24.2 cell line contained this insert (data not shown), the response to cisplatin was studied, creating a viability curve with this drug. […] JNK and p38 are MAPKs that are activated in response to genotoxic agents (Sanchez-Perez et al., 1998).\nWestern Blot and antibodies. 20 μg of protein were separated in SDS-polyacrylamide gels; subsequently, they were transferred to Immobilon-P membranes (Millipore) by humid transfer. […]"}}, "note": "“Also recorded” adds a separate entry of the source.", "data": [{"molecule": "B1", "values": [{"measurement": "hTR expression levels in dyskeratosis congenita cells", "setting": "[1]", "value": "an increase in the expression levels was observed"}, {"measurement": "expression of hTERT RNA in VA13 cells", "setting": "[2]", "value": "capable of recovering"}, {"measurement": "telomerase activity in dyskeratosis congenita cells", "setting": "[3]", "value": "an increase in telomerase activity was observed; also recorded: compensates for the defects in telomerase activity"}, {"measurement": "dose of cisplatin required to activate JNK", "setting": "[4]", "value": "a greater dose of cisplatin is required to activate both kinases"}]}]}
